Experimental data published in patent US20160137696A1 (Bristol-Myers Squibb, published 2016).
Starred links: 1 amine or outer side, 2 acyl side, 3 side chain; linkers in the order of their positions; H or OH if unused. Positions of bridges follow the written chain, without caps; N, C: chain ends. Non-standard residues stand in square brackets, D forms with d. Groups on a side chain read outwards from the residue. Primed or numbered codes have the meaning given here. No end group written: not given here. *: point of attachment. PEG8′ = PEG8 unit (23-azido-3,6,9,12,15,18,21-heptaoxatricosyl, i.e. an eight-unit PEG spacer) linking the triazole to vitamin E succinate; PEG11′ = PEG11 spacer (eleven ethylene glycol units, 3,6,...,33-undecaoxa) between the triazole and gamma-Glu-C18 diacid; PEG6′ = PEG6 spacer (17-azido-3,6,9,12,15-pentaoxaheptadecyl) linking the triazole to vitamin E succinate; Pra″ = its azide, alkyne or alkene has reacted where a group follows in round brackets; Pra(3) = propargylglycine, clicked to an azide to give a triazolyl-alanine; triazole = 1,2,3-triazole formed by click of the Pra alkyne with the azide; Trp(1-CH2CO) = O=C([C@H](Cc1cn(CC(=O)[*:3])c2ccccc12)N[*:1])[*:2]; Phe(3,4,5-F3) = N[C@@H](Cc1cc(F)c(F)c(F)c1)C(=O)O; C18 diacid = O=C(O)CCCCCCCCCCCCCCCCC(=O)*; γGlu = O=C(O)[C@H](CCC(=O)[*:2])N[*:1]; Aha = [N-]=[N+]=NCC[C@H](N)C(=O)O; Hyp = O=C(O)[C@@H]1C[C@@H](O)CN1; NMeF = CN[C@@H](Cc1ccccc1)C(=O)O; F3Phe = trifluoro-phenylalanine; NMeE = CN[C@@H](CCC(=O)O)C(=O)O; NMeNle = CCCC[C@H](NC)C(=O)O; Suc = O=C(CCC(=O)[*:2])[*:1]; triazole″ = not defined here; Bzt = benzothienylalanine; NMeA = CN[C@@H](C)C(=O)O; Orn = NCCC[C@H](N)C(=O)O; PEG4′ = not defined here; Pra = C#CC[C@H](N)C(=O)O; Dap = NC[C@H](N)C(=O)O; Sar = CNCC(=O)O

B1: INT-1400G (peptide)
peptide: {CH2CO}-Y[NMeA]NP[Dap]L[Hyp]WSW[NMeNle][NMeNle]RCG[Pra]
modifications: thioether N-14; not fully specified (C-terminus); printed as ClAc-Tyr-mAla-Asn-Pro-Dap-Leu-Hyp-Trp-Ser-Trp-mNle-mNle-Arg-Cys-Gly-[(S)-propargylglycine]
notes: also called Intermediate 1400G
B2: INT-1300Y (peptide)
peptide: {CH2CO}-Y[NMeA]DPHK[Hyp]WK[Trp(1-CH2CO)][NMeNle][NMeNle]ECG[Pra]-OH
modifications: thioether N-14
SMILES: C#CC[C@H](NC(=O)CNC(=O)[C@@H]1CSCC(=O)N[C@@H](Cc2ccc(O)cc2)C(=O)N(C)[C@@H](C)C(=O)N[C@@H](CC(=O)O)C(=O)N2CCC[C@H]2C(=O)N[C@@H](Cc2c[nH]cn2)C(=O)N[C@@H](CCCCN)C(=O)N2C[C@H](O)C[C@H]2C(=O)N[C@@H](Cc2c[nH]c3ccccc23)C(=O)N[C@@H](CCCCN)C(=O)N[C@@H](Cc2cn(CC(=O)O)c3ccccc23)C(=O)N(C)[C@@H](CCCC)C(=O)N(C)[C@@H](CCCC)C(=O)N[C@@H](CCC(=O)O)C(=O)N1)C(=O)O
notes: also called Intermediate 1300Y
B3: INT-1400A (peptide)
peptide: {CH2CO}-Y[NMeA]DPHK[Hyp]WKW[NMeNle][NMeNle]ECG[Pra]G
modifications: thioether N-14; not fully specified (C-terminus); printed as ClAc-Tyr-mAla-Asp-Pro-His-Lys-Hyp-Trp-Lys-Trp-mNle-mNle-Glu-Cys-Gly-[(S)-propargylglycine]-Gly
notes: also called Intermediate 1400A
B4: Example 14056 (peptide)
peptide: YADPHKPWKWXXECGXD
modifications: as m107 (INT 1400B); Pra triazole-linked to vitamin E succinate 5-azidopentylamide
B5: INT-1400B (peptide)
peptide: {CH2CO}-Y[NMeA]DPHK[Hyp]WKW[NMeNle][NMeNle]ECG[Pra]D
modifications: thioether N-14; not fully specified (C-terminus); printed as ClAc-Tyr-mAla-Asp-Pro-His-Lys-Hyp-Trp-Lys-Trp-mNle-mNle-Glu-Cys-Gly-[(S)-propargylglycine]-Asp
notes: also called Intermediate 1400B
B6: INT-1400E (peptide)
peptide: {CH2CO}-Y[NMeA]DPHK[Hyp]WK[Trp(1-CH2CO)][NMeNle][NMeNle]ECG[Pra]D
modifications: thioether N-14; not fully specified (C-terminus); printed as ClAc-Tyr-mAla-Asp-Pro-His-Lys-Hyp-Trp-Lys-“Trp”-mNle-mNle-Glu-Cys-Gly-[(S)-propargylglycine]-Asp
notes: also called Intermediate 1400E
B7: INT-1400C (peptide)
peptide: {CH2CO}-Y[NMeA]DPHQ[Hyp]WSW[NMeNle][NMeNle]ECG[Pra]G
modifications: thioether N-14; not fully specified (C-terminus); printed as ClAc-Tyr-mAla-Asp-Pro-His-Gln-Hyp-Trp-Ser-Trp-mNle-mNle-Glu-Cys-Gly-[(S)-propargylglycine]-Gly
notes: also called Intermediate 1400C
B8: INT-1400D (peptide)
peptide: {CH2CO}-Y[NMeA]DPHK[Hyp]WK[Trp(1-CH2CO)][NMeNle][NMeNle]ECG[Pra]G
modifications: thioether N-14; not fully specified (C-terminus); printed as ClAc-Tyr-mAla-Asp-Pro-His-Lys-Hyp-Trp-Lys-“Trp”-mNle-mNle-Glu-Cys-Gly-[(S)-propargylglycine]-Gly
B9: INT-1400F (peptide)
peptide: {CH2CO}-Y[NMeA]DPHK[Hyp]WKW[NMeNle][NMeNle]ECG[Pra]
modifications: thioether N-14; not fully specified (C-terminus); printed as ClAc-Tyr-mAla-Asp-Pro-His-Lys-Hyp-Trp-Lys-Trp-mNle-mNle-Glu-Cys-Gly-[(S)-propargylglycine]
notes: also called Intermediate 1400F
B10: INT-1400H (peptide)
peptide: {CH2CO}-Y[NMeA]DPHQ[Hyp]WSW[NMeNle][NMeNle]ECG[Pra]
modifications: thioether N-14; not fully specified (C-terminus); printed as ClAc-Tyr-mAla-Asp-Pro-His-Gln-Hyp-Trp-Ser-Trp-mNle-mNle-Glu-Cys-Gly-[(S)-propargylglycine]
notes: also called Intermediate 1400H
B11: INT-1400K (peptide)
peptide: {CH2CO}-[F3Phe][NMeF][NMeNle][dP]DV[NMeF][Orn][dP]WYLCG[Pra]
modifications: thioether N-13; not fully specified (C-terminus); printed as ClAc-F3Phe-mPhe-mNle-dPro-Asp-Val-mPhe-Orn-dPro-Trp-Tyr-Leu-Cys-Gly-[(S)-propargylglycine]
notes: also called Intermediate 1400K
B12: Example 14051 (peptide)
peptide: YADPHKPWKWXXECGXG
modifications: as m106 (INT 1400A); Pra triazole-linked to vitamin E succinate 5-azidopentylamide
B13: Example 14054 (peptide)
peptide: YADPHQPWSWXXECGXG
modifications: as m108 (INT 1400C); Pra triazole-linked to vitamin E succinate 5-azidopentylamide
B14: Example 14087 (peptide)
peptide: FFXPDVFXPWYLCGX
modifications: as m16 (INT 1400K); Pra triazole-linked to vitamin E succinate 5-azidopentylamide
B15: Example 3619 (peptide)
peptide: {CH2CO}-F[NMeF][NMeNle][Sar]DV[NMeF]Y[NMeE]WYLCGGGK-NH2
modifications: thioether N-13
SMILES: CCCC[C@H]1C(=O)N(C)CC(=O)N[C@@H](CC(=O)O)C(=O)N[C@@H](C(C)C)C(=O)N(C)[C@@H](Cc2ccccc2)C(=O)N[C@@H](Cc2ccc(O)cc2)C(=O)N(C)[C@@H](CCC(=O)O)C(=O)N[C@@H](Cc2c[nH]c3ccccc23)C(=O)N[C@@H](Cc2ccc(O)cc2)C(=O)N[C@@H](CC(C)C)C(=O)N[C@H](C(=O)NCC(=O)NCC(=O)NCC(=O)N[C@@H](CCCCN)C(N)=O)CSCC(=O)N[C@@H](Cc2ccccc2)C(=O)N(C)[C@@H](Cc2ccccc2)C(=O)N1C
notes: order read from the list of couplings, which runs from C- to N-terminus
B16: Example 3214 (peptide)
peptide: {CH2CO}-[Phe(3,4,5-F3)][NMeF][NMeNle]PDV[NMeF]Y[NMeE]WYLCGGGK-NH2
modifications: thioether N-13; not fully specified (residue 4); printed as ClAc-Phe(3,4,5-tri-F)-[N-Me]Phe-[N-Me]Nle-cis-(D)-Pro(4-OH)-Asp-Val-[N-Me]Phe-Tyr-[N-Me]Glu-Trp-Tyr-Leu-Cys-Gly-Gly-Gly-Lys
notes: as for B15

Legend:
[1] = target: T1, Recombinant Human PD-L1-TVMV-His (human, UniProt Q9NZQ7 19-239); assay: HTRF vs PD-1-Ig; A = IC50 0.10-1.6 µM
T1 construct: expressed in HEK293T cells; also called PD-L1-His; hPD-L1(19-239)-TVMV-His
Procedure: (§1) Homogenous Time-Resolved Fluorescence (HTRF) Assays of Binding of Soluble PD-1 to Soluble PD-L1. Soluble PD-1 and soluble PD-L1 refers to proteins with carboxyl-end truncations that remove the transmembrane-spanning regions and are fused to heterologous sequences, specifically the Fc portion of the human immunoglobuling G sequence (Ig) or the hexahistidine epitope tag (His). All binding studies were performed in an HTRF assay buffer consisting of dPBS supplemented with 0.1% (w/v) bovine serum albumin and 0.05% (v/v) Tween-20. For the PD-1-Ig/PD-L1-His binding assay, inhibitors were pre-incubated with PD-L1-His (10 nM final) for 15 m in 4 μl of assay buffer, followed by addition of PD-1-Ig (20 nM final) in 1 μl of assay buffer and further incubation for 15 m. PD-L1 fusion proteins from either human, cynomologous macaques, mouse, or other species were used. HTRF detection was achieved using europium crypate-labeled anti-Ig monoclonal antibody (1 nM final) and allophycocyanin (APC) labeled anti-His monoclonal antibody (20 nM final). Antibodies were diluted in HTRF detection buffer and 5 μl was dispensed on top of binding reaction. The reaction was allowed to equilibrate for 30 minutes and signal (665 nm/620 nm ratio) was obtained using an EnVision fluorometer. Additional binding assays were established between PD-I-Ig/PD-L2-His (20 and 5 nM, respectively), CD80-His/PD-L1-Ig (100 and 10 nM, respectively) and CD80-His/CTLA4-Ig (10 and 5 nM, respectively). Binding/competition studies between biotinylated Compound No. 71 and human PD-L1-His were performed as follows. Macrocyclic peptide inhibitors were pre-incubated with PD-L1-His (10 nM final) for 60 minutes in 4 μl of assay buffer followed by addition of biotinylated Compound No. 71 (0.5 nM final) in 1 μl of assay buffer. Binding was allowed to equilibrate for 30 minutes followed by addition of europium crypated labeled Streptavidin (2.5 pM final) and APC-labeled anti-His (20 nM final) in 5 μl of HTRF buffer. The reaction was allowed to equilibrate for 30 m and signal (665 nm/620 nm ratio) was obtained using an EnVision fluorometer.

[2] = target: T1, Recombinant Human PD-L1-TVMV-His; assay: HTRF vs PD-1-Ig; C = IC50 0.0003-0.0099 µM
Procedure: as §1

T1 sequence (Q9NZQ7 other isoform, or with tags, fused parts or gaps limits assumed): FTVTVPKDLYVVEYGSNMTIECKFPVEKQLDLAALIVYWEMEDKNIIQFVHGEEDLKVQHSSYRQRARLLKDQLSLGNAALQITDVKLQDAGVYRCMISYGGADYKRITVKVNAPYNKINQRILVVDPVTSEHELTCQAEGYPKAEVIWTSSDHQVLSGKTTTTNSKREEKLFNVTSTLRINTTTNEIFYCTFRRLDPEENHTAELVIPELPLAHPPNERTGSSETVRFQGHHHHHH

Row | Binder | IC50 [1] [nM] | IC50 [2] [nM]
1 | {CH2CO}-Y[NMeA]NP[Dap]L[Hyp]WS[Bzt][NMeNle][NMeNle]RCG[Pra] (thioether N-14; not fully specified (residue 16)) [Example 14058] | 100 to 1600 | –
2 | B1 | – | 0.3 to 9.9
3 | B2 | – | 0.3 to 9.9
4 | B3 | – | 0.3 to 9.9
5 | B4 | 100 to 1600 | –
6 | {CH2CO}-Y[NMeA]DPHK[Hyp]WKW[NMeNle][NMeNle]ECG[Pra(3)]([triazole″-PEG8′-Suc-vitamin E])D (thioether N-14; reading uncertain) [Example 14057] | 100 to 1600 | –
7 | B5 | – | 0.3 to 9.9
8 | B6 | – | 0.3 to 9.9
9 | B7 | – | 0.3 to 9.9
10 | B8 | – | 0.3 to 9.9
11 | B9 | – | 0.3 to 9.9
12 | B10 | – | 0.3 to 9.9
13 | {CH2CO}-Y[NMeA]NP[Dap]L[Hyp]WS[Bzt][NMeNle][NMeNle]RCGG[Aha] (thioether N-14) [INT-1300C] | – | 0.3 to 9.9
14 | B11 | – | 0.3 to 9.9
15 | B12 | 100 to 1600 | –
16 | {CH2CO}-Y[NMeA]DPHK[Hyp]WKW[NMeNle][NMeNle]ECG[Pra(3)]([triazole″-PEG6′-Suc-vitamin E])G (thioether N-14; reading uncertain) [Example 14053] | 100 to 1600 | –
17 | B13 | 100 to 1600 | –
18 | {CH2CO}-Y[NMeA]DPHK[Hyp]WKW[NMeNle][NMeNle]ECG[Pra(3)]([triazole″-PEG4′-Suc-vitamin E])G (thioether N-14; reading uncertain) [Example 14060] | 100 to 1600 | –
19 | B14 | 100 to 1600 | –
20 | {CH2CO}-Y[NMeA]DPHK[Hyp]WKW[NMeNle][NMeNle]ECG[Pra(3)]G (thioether N-14; not fully specified (residue 16, C-terminus)) [Example 14064] | – | 0.3 to 9.9
21 | {CH2CO}-Y[NMeA]DPHK[Hyp]WK[Trp(1-CH2CO)][NMeNle][NMeNle]ECG[Pra″]([triazole-PEG11′-γGlu-C18 diacid]) (thioether N-14) [Example 14092] | – | 0.3 to 9.9
22 | B15 | – | 0.3 to 9.9
23 | B16 | – | 0.3 to 9.9
